Measurements: the supplement of paper PMC12338614
± gives the uncertainty stated by the source.

B1: library; numbered along this chain (parent)
chain: MEVVDPQQLGMFTEGELMSVGMDTFIHRIDSTEVIYQPRRKRAKLIGKYLMGDLLGEGSYGKVKEVLDSETLCRRAVKILKKKKLRRIPNGEANVKKEIQLLRRLRHKNVIQLVDVLYNEEKQKMYMVMEYCVCGMQEMLDSVPEKRFPVCQAHGYFCQLIDGLEYLHSQGIVHKDIKPGNLLLTTGGTLKISDLGVAEALHPFAADDTCRTSQGSPAFQPPEIANGLDTFSGFKVDIWSAGVTLYNITTGLYPFEGDNIYKLFENIGKGSYAIPGDCGPPLSDLLKGMLEYEPAKRFSIRQIRQHSWFRKKHPPAEAPVPIPPSPDTKDRWRSMTVVPYLEDLHGADEDEDLFDIEDDIIYTQDFTVPGQVPEEEASHNGQRRGLPKAVCMNGTEAAQLSTKSRAEGRAPNPARKACSASSKIRRLSACKQQ

Variants of: B1
Assay: STK11 functional score (HeLa growth suppression), rescaled enrichment; synonymous median = 1, nonsense median = 0 (normalised score)
Details: with HeLa; variant type: missense
Outline: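 The functional score takes the post/pre-selection log ratio, corrects it to wild type, rescales it to synonymous and nonsense medians, and merges it over codons and replicate transfections, with error from bootstrapping. Counts came from tiled gDNA amplicons sequenced on NextSeq (~2 million reads per tile). The libraries were POPCode codon-randomised, codon-optimised STK11 integrated by Bxb1 at an AAVS1 landing pad in HeLa, three regions with three transfections each.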

Variant | STK11 functional score
MEVVDPQQLGMFTEGELYSVGMDTFIHRIDSTEVIYQPRRKRAKLIGKYLMGDLLGEGSYGKVKEVLDSETLCRRAVKILKKKKLRRIPNGEANVKKEIQLLRRLRHKNVIQLVDVLYNEEKQKMYMVMEYCVCGMQEMLDSVPEKRFPVCQAHGYFCQLIDGLEYLHSQGIVHKDIKPGNLLLTTGGTLKISDLGVAEALHPFAADDTCRTSQGSPAFQPPEIANGLDTFSGFKVDIWSAGVTLYNITTGLYPFEGDNIYKLFENIGKGSYAIPGDCGPPLSDLLKGMLEYEPAKRFSIRQIRQHSWFRKKHPPAEAPVPIPPSPDTKDRWRSMTVVPYLEDLHGADEDEDLFDIEDDIIYTQDFTVPGQVPEEEASHNGQRRGLPKAVCMNGTEAAQLSTKSRAEGRAPNPARKACSASSKIRRLSACKQQ [M18Y] | 1.43 ± 0.41
MEVVDPQQLGMFTEGELMSVGMDTFIHRIDSTEVIYQPRRKRAKLIGKYLMGDLLGEGSYGKVKEVLDSETLCRRAVKILKKKKLRRIPNGEAIVKKEIQLLRRLRHKNVIQLVDVLYNEEKQKMYMVMEYCVCGMQEMLDSVPEKRFPVCQAHGYFCQLIDGLEYLHSQGIVHKDIKPGNLLLTTGGTLKISDLGVAEALHPFAADDTCRTSQGSPAFQPPEIANGLDTFSGFKVDIWSAGVTLYNITTGLYPFEGDNIYKLFENIGKGSYAIPGDCGPPLSDLLKGMLEYEPAKRFSIRQIRQHSWFRKKHPPAEAPVPIPPSPDTKDRWRSMTVVPYLEDLHGADEDEDLFDIEDDIIYTQDFTVPGQVPEEEASHNGQRRGLPKAVCMNGTEAAQLSTKSRAEGRAPNPARKACSASSKIRRLSACKQQ [N94I] | 1.14 ± 0.21
MEVVDPQQLGMFTEGELMSVGMDTFIHRIDSTEVIYQPRRKRAKLIGKYLMGDLLGEGSYGKVKEVLDSETLCRRAVKILKKKKLRRIPNGEANVKKEIQLLRRLRHKNVIQLVDVLYNEEKQKMYMVMEYCVCGMQEMLDSVPEKRFPVCQAHGYFCQLIDGLEYLHSQGIVHKDIKPGNLLLTTGGTLKISDLGVAEALHPFAADDTCRTSQGSPAFQPPEIANGLDTFSGFKVDIWSAGVTLYNITTGLYPFELDNIYKLFENIGKGSYAIPGDCGPPLSDLLKGMLEYEPAKRFSIRQIRQHSWFRKKHPPAEAPVPIPPSPDTKDRWRSMTVVPYLEDLHGADEDEDLFDIEDDIIYTQDFTVPGQVPEEEASHNGQRRGLPKAVCMNGTEAAQLSTKSRAEGRAPNPARKACSASSKIRRLSACKQQ [G257L] | 0.765 ± 0.18
MEVVDPQQLGMFTEGELMSVGMDTFIHRIDSTEVIYQPRRKRAKLIGKYLMGDLLGEGSYGKVKEVLDSETLCRRAVKILKKKKLRRTPNGEANVKKEIQLLRRLRHKNVIQLVDVLYNEEKQKMYMVMEYCVCGMQEMLDSVPEKRFPVCQAHGYFCQLIDGLEYLHSQGIVHKDIKPGNLLLTTGGTLKISDLGVAEALHPFAADDTCRTSQGSPAFQPPEIANGLDTFSGFKVDIWSAGVTLYNITTGLYPFEGDNIYKLFENIGKGSYAIPGDCGPPLSDLLKGMLEYEPAKRFSIRQIRQHSWFRKKHPPAEAPVPIPPSPDTKDRWRSMTVVPYLEDLHGADEDEDLFDIEDDIIYTQDFTVPGQVPEEEASHNGQRRGLPKAVCMNGTEAAQLSTKSRAEGRAPNPARKACSASSKIRRLSACKQQ [I88T] | 1.48 ± 0.39
MEVVDPQQLGMFTEGELMSVGMDTFIHRIDSTEVIYQPRRKRAKLIGKYLMGDLLGEGSYGKVKEVLDSETLCRRAVKILKKKKLRRIPNGEANVKKEIQLLRRLRHKNVIQLVDVLYNEEKQKMYMVMEYCVCGMQEMLDSVPEKRFPVCQAHGYFCQLIDGLEYLHSQGIVHKDIKPGNLLLTTGGTLKISDLGVAEALHPFAADDTCRTSQGSPAFQPPEIANGLDTFSGFKVDIWSAGVTLYNITTGLYPFEGDNIYKLFENIGKGSYAIPGDCGPPLSDLLKGMLEYEPAKRFSIRQIRQHSWFRKKHPPAEAPVPIPPSPDTKDRWRSMTVVPYLEDLHGADEDEDLFDIEDDIIYTQDFTVPGQVPEEEASHNGQRRGLPKAVCMNGTEAAQLSTKSRAEGRAPNPARKACSASSKIIRLSACKQQ [R425I] | 0.977 ± 0.41
MEVVDPQQLGMFTEGELMSVGMDTFIHRIDSTEVIYQPRRKRAKLIGKYLMGDLLGEGSYGKVKEVLDSETLCRRAVKILKKKKLRRIPNGEANVKKEIQLLRRLRHKNVIQLVDVLYNEEKQKMYMVMEYCVCGMQEMLDSVPEKRFPVCQAHGYFCQLIDGLEYLHSQGIVHKDIKPGNLLLTTGGTLKISDLGVAEALHPFAADDTCRTSQGSPAFQPPEIANGLDTFSGFKVDIWSAGVTLYNITTGLYPFEGDNIYKLFENIGKGSYAIPGDCGPPLSDLLKGMLEYEPAKRFSIRKIRQHSWFRKKHPPAEAPVPIPPSPDTKDRWRSMTVVPYLEDLHGADEDEDLFDIEDDIIYTQDFTVPGQVPEEEASHNGQRRGLPKAVCMNGTEAAQLSTKSRAEGRAPNPARKACSASSKIRRLSACKQQ [Q302K] | 0.605 ± 0.3
MEVVDPQQLGMFTEGELMSVGMDTFIHRIDSTEVIYQPRRKRAKLIGKYLMGDLLGEGSYGKVKEVLDSETLCRRAVKILKKKKLRRIPNGEANVKKEIQLLRRLRHKNVIQLVDVLYNEEKQKMYMVMEYCVCGMQEMLDSVPCKRFPVCQAHGYFCQLIDGLEYLHSQGIVHKDIKPGNLLLTTGGTLKISDLGVAEALHPFAADDTCRTSQGSPAFQPPEIANGLDTFSGFKVDIWSAGVTLYNITTGLYPFEGDNIYKLFENIGKGSYAIPGDCGPPLSDLLKGMLEYEPAKRFSIRQIRQHSWFRKKHPPAEAPVPIPPSPDTKDRWRSMTVVPYLEDLHGADEDEDLFDIEDDIIYTQDFTVPGQVPEEEASHNGQRRGLPKAVCMNGTEAAQLSTKSRAEGRAPNPARKACSASSKIRRLSACKQQ [E145C] | 1.41 ± 0.52
MEVVDPQQLGMFTEGELMSVGMDTFIHRIDSTEVIYQPRRKRAKLIGKYLMGDLLGEGSYGKVKEVLDSETLCRRAVKILKKKKLRRIPNGEANVKKEIQLLRRLRHKNVIQLVDVLYNEEKQKMYMVMEHCVCGMQEMLDSVPEKRFPVCQAHGYFCQLIDGLEYLHSQGIVHKDIKPGNLLLTTGGTLKISDLGVAEALHPFAADDTCRTSQGSPAFQPPEIANGLDTFSGFKVDIWSAGVTLYNITTGLYPFEGDNIYKLFENIGKGSYAIPGDCGPPLSDLLKGMLEYEPAKRFSIRQIRQHSWFRKKHPPAEAPVPIPPSPDTKDRWRSMTVVPYLEDLHGADEDEDLFDIEDDIIYTQDFTVPGQVPEEEASHNGQRRGLPKAVCMNGTEAAQLSTKSRAEGRAPNPARKACSASSKIRRLSACKQQ [Y131H] | 1.2 ± 0.44
MEVVDPQQLGMFTEGELMSVGMDTFIHRIDSTEVIYQPRRKRAKLIGKYLMGDLLGEGSYGKVKEVLDSETLCRRAVKILKKKKLRRIPNGEANVKKEIQLLRRLRHKNVIQLVDVLYNEEKQKMYMVMEYCVCGMQEMLDSVPEKRFPVCQAHGYFCQLIDGLEYLHSQGIVHKDIKPGNLLLTTGGTLKISDLGVAEALHPFAADDTCRTSQGSPAFQPPEIANGLDTFSGFKVDIWSAGVTLYNITTGLYPFEGDNIYKLFENIGKGSYASPGDCGPPLSDLLKGMLEYEPAKRFSIRQIRQHSWFRKKHPPAEAPVPIPPSPDTKDRWRSMTVVPYLEDLHGADEDEDLFDIEDDIIYTQDFTVPGQVPEEEASHNGQRRGLPKAVCMNGTEAAQLSTKSRAEGRAPNPARKACSASSKIRRLSACKQQ [I274S] | 0.98 ± 0.21
MEVVDPQQLGMFTEGELMSVGMDTFIHRIDSTEVIYQPRRKRAKLIGKYLMGDLLGEGSYGKVKEVLDSETLCRRAVKILKKKKLRRIPNGEANVKKEIQLLRRLRHKNVIQLVDVLYNEEKQKMYMVMEYCVCGMQEMLDSVPEKRFPVCQAHGYFCQLIDGLEYLHSQGIVHKDIKPGNLLLTTGGTLKISDLGVAEALHPFAADDTCRTSQGSPAFQPPEIANGLDTFSGFKVDIWSAGVTLYNITTGLYPFEGDNIYKLFENIGKGSYAIPGDCGPPLSDLLKGMLEYEPAKRFSIRQIRQHSWFRKKHPPAEAPVPIPPSPDTKDRWRSMTVVPYLEDLHGAAEDEDLFDIEDDIIYTQDFTVPGQVPEEEASHNGQRRGLPKAVCMNGTEAAQLSTKSRAEGRAPNPARKACSASSKIRRLSACKQQ [D348A] | 1.54 ± 0.24
MEVVDPQQLGMFTEGELMSVGMDTFIHRIDSTEVIYQPRRKRAKLIGKYLMGDLLGEGSYGKVKEVLDSETLCRRAVKILKKKKLRRIPNGEANVKKEIQLLRRLRHKNVIQLVDVLYNEEKQRMYMVMEYCVCGMQEMLDSVPEKRFPVCQAHGYFCQLIDGLEYLHSQGIVHKDIKPGNLLLTTGGTLKISDLGVAEALHPFAADDTCRTSQGSPAFQPPEIANGLDTFSGFKVDIWSAGVTLYNITTGLYPFEGDNIYKLFENIGKGSYAIPGDCGPPLSDLLKGMLEYEPAKRFSIRQIRQHSWFRKKHPPAEAPVPIPPSPDTKDRWRSMTVVPYLEDLHGADEDEDLFDIEDDIIYTQDFTVPGQVPEEEASHNGQRRGLPKAVCMNGTEAAQLSTKSRAEGRAPNPARKACSASSKIRRLSACKQQ [K124R] | 1.18 ± 0.52
MEVVDPQQLGMFTEGELMSVGMDTFIHRIDDTEVIYQPRRKRAKLIGKYLMGDLLGEGSYGKVKEVLDSETLCRRAVKILKKKKLRRIPNGEANVKKEIQLLRRLRHKNVIQLVDVLYNEEKQKMYMVMEYCVCGMQEMLDSVPEKRFPVCQAHGYFCQLIDGLEYLHSQGIVHKDIKPGNLLLTTGGTLKISDLGVAEALHPFAADDTCRTSQGSPAFQPPEIANGLDTFSGFKVDIWSAGVTLYNITTGLYPFEGDNIYKLFENIGKGSYAIPGDCGPPLSDLLKGMLEYEPAKRFSIRQIRQHSWFRKKHPPAEAPVPIPPSPDTKDRWRSMTVVPYLEDLHGADEDEDLFDIEDDIIYTQDFTVPGQVPEEEASHNGQRRGLPKAVCMNGTEAAQLSTKSRAEGRAPNPARKACSASSKIRRLSACKQQ [S31D] | 1.28 ± 0.37
MEVVDPQQLGMFTEGELMSVGMDTFIHRIDSYEVIYQPRRKRAKLIGKYLMGDLLGEGSYGKVKEVLDSETLCRRAVKILKKKKLRRIPNGEANVKKEIQLLRRLRHKNVIQLVDVLYNEEKQKMYMVMEYCVCGMQEMLDSVPEKRFPVCQAHGYFCQLIDGLEYLHSQGIVHKDIKPGNLLLTTGGTLKISDLGVAEALHPFAADDTCRTSQGSPAFQPPEIANGLDTFSGFKVDIWSAGVTLYNITTGLYPFEGDNIYKLFENIGKGSYAIPGDCGPPLSDLLKGMLEYEPAKRFSIRQIRQHSWFRKKHPPAEAPVPIPPSPDTKDRWRSMTVVPYLEDLHGADEDEDLFDIEDDIIYTQDFTVPGQVPEEEASHNGQRRGLPKAVCMNGTEAAQLSTKSRAEGRAPNPARKACSASSKIRRLSACKQQ [T32Y] | 0.666 ± 0.85
MEVVDPQQLGMFTEGELMSVGMDTFIHRIDSTEVIYQPRRKRAKLIGKYLMGDLLGEGSYGKVKEVLDSETLCRRAVKILKKKKLRRIPNGEANVKKEIQLLRRLRHKNVIQLVDVLYNEEKQKMYMVMEYCVCGMQEMLDSVPEKRFPVCQAHGYFCQLIDGLEYLHSQGIVHKDIKPGNLLLTTGGTLKISDLGVAEALHPFAADDTCRTSQGSPAGQPPEIANGLDTFSGFKVDIWSAGVTLYNITTGLYPFEGDNIYKLFENIGKGSYAIPGDCGPPLSDLLKGMLEYEPAKRFSIRQIRQHSWFRKKHPPAEAPVPIPPSPDTKDRWRSMTVVPYLEDLHGADEDEDLFDIEDDIIYTQDFTVPGQVPEEEASHNGQRRGLPKAVCMNGTEAAQLSTKSRAEGRAPNPARKACSASSKIRRLSACKQQ [F219G] | 0.713 ± 0.29
